One block for each binder: values may come before it.
Legend:
[1] = target: T1, PCNA_(1–2-3) heterotrimer of S. solfataricus (S. solfataricus, UniProt P57766 1-249; Q97Z84 1-245; P57765 1-244); experiment: SEC
T1 sequence 1: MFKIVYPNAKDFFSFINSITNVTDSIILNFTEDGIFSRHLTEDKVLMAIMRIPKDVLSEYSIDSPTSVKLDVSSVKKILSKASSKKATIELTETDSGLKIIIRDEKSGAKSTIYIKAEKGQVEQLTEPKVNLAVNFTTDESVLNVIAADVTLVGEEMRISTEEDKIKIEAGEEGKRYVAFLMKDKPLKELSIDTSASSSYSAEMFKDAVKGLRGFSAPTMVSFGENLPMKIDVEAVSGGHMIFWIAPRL
T1 sequence 2: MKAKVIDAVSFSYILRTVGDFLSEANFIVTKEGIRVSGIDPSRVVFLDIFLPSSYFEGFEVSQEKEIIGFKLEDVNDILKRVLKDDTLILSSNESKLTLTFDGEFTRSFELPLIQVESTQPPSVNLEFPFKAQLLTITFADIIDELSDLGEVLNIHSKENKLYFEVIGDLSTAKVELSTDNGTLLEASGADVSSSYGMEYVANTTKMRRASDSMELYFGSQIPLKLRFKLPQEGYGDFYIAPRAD
T1 sequence 3: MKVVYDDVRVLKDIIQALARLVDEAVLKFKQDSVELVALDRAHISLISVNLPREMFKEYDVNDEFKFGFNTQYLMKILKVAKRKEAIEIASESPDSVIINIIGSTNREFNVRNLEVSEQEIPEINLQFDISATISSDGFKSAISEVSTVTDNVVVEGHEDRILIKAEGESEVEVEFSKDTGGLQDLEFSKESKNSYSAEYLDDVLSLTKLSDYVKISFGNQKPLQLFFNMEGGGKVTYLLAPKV

[2] = target: T2, DNA ligase (Lig);PCNA1-PCNA2-PCNA3 heterotrimer (S. solfataricus;S. solfataricus, UniProt Q980T8;P57766;Q97Z84;P57765 1-601;1-249;1-245;1-244, |); experiment: cryo-EM
T2 sequence 1: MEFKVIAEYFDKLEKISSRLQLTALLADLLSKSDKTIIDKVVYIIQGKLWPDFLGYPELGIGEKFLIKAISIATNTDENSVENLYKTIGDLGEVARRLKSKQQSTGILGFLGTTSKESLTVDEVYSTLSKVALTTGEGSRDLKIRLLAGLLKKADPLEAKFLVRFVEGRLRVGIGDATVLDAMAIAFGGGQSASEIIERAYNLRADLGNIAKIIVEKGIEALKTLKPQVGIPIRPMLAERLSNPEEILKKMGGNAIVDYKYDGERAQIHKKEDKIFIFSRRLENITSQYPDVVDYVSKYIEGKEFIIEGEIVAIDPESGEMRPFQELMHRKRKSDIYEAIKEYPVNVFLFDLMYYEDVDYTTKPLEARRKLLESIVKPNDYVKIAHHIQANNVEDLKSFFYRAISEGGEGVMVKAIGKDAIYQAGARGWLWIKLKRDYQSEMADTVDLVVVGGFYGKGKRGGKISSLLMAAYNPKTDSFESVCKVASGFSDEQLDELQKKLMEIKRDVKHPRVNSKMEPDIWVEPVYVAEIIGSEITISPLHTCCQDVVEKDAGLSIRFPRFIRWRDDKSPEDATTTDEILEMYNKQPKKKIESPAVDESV
T2 sequence 2: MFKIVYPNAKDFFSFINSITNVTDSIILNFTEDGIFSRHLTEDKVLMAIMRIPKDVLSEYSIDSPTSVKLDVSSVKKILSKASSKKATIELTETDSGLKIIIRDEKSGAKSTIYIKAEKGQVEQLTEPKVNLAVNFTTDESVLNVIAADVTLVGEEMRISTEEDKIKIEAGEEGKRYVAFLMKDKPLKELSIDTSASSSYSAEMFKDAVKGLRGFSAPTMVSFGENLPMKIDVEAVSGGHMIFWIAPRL
T2 sequence 3: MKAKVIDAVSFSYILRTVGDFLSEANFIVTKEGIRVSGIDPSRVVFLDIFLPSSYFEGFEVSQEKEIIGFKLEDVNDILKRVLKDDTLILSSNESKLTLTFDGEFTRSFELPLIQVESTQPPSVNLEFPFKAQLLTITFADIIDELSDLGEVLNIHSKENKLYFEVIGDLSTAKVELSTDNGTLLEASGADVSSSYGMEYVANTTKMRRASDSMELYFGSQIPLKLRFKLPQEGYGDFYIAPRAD
T2 sequence 4: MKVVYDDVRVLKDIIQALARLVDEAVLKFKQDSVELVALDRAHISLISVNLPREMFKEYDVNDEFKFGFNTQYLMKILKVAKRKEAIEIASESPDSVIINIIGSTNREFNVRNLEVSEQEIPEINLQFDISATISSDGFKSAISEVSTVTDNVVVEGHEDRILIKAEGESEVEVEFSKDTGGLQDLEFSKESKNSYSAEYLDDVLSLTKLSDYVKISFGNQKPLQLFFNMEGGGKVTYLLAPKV

[3] = target: T2, DNA ligase (Lig);PCNA1-PCNA2-PCNA3 …; experiment: cryo-EM; remark: listed apart in the source
[4] = target: T2, DNA ligase (Lig);PCNA1-PCNA2-PCNA3 …; experiment: gel filtration co-elution
[5] = target: T2, DNA ligase (Lig);PCNA1-PCNA2-PCNA3 …; experiment: cryo-EM; remark: listed apart in the source

binding result [1]: binds
B1: Lig 103/107 QI-AA mutant (enzyme, S. solfataricus)
chain: MEFKVIAEYFDKLEKISSRLQLTALLADLLSKSDKTIIDKVVYIIQGKLWPDFLGYPELGIGEKFLIKAISIATNTDENSVENLYKTIGDLGEVARRLKSKQASTGALGFLGTTSKESLTVDEVYSTLSKVALTTGEGSRDLKIRLLAGLLKKADPLEAKFLVRFVEGRLRVGIGDATVLDAMAIAFGGGQSASEIIERAYNLRADLGNIAKIIVEKGIEALKTLKPQVGIPIRPMLAERLSNPEEILKKMGGNAIVDYKYDGERAQIHKKEDKIFIFSRRLENITSQYPDVVDYVSKYIEGKEFIIEGEIVAIDPESGEMRPFQELMHRKRKSDIYEAIKEYPVNVFLFDLMYYEDVDYTTKPLEARRKLLESIVKPNDYVKIAHHIQANNVEDLKSFFYRAISEGGEGVMVKAIGKDAIYQAGARGWLWIKLKRDYQSEMADTVDLVVVGGFYGKGKRGGKISSLLMAAYNPKTDSFESVCKVASGFSDEQLDELQKKLMEIKRDVKHPRVNSKMEPDIWVEPVYVAEIIGSEITISPLHTCCQDVVEKDAGLSIRFPRFIRWRDDKSPEDATTTDEILEMYNKQPKKKIESPAVDESV

B2: 47 bp 3'dideoxy nicked DNA (dsDNA)
DNA 1: GTATCCTCGTAGTGCAGATGCGTC
DNA 2: GTCGGACTGATTCGGTAGATCTG
DNA 3: CAGATCTACCGAATCAGTCCGACGACGCATCTGCACTACGAGGATAC
modifications: 3'-dideoxy terminus of upstream strand; 5'PO4 on downstream strand
binding result [2]: binds

B3: 47 bp nicked DNA, 5'-adenylated (AppDNA) (dsDNA)
DNA 1: GTATCCTCGTAGTGCAGATGCGTC
DNA 2: GTCGGACTGATTCGGTAGATCTG
DNA 3: CAGATCTACCGAATCAGTCCGACGACGCATCTGCACTACGAGGATAC
modifications: 5'-App (adenylated 5'PO4) on downstream strand; 3'OH at nick
binding result [3]: binds

B4: 47 bp ligatable nicked DNA (dsDNA)
DNA 1: GTATCCTCGTAGTGCAGATGCGTC
DNA 2: GTCGGACTGATTCGGTAGATCTG
DNA 3: CAGATCTACCGAATCAGTCCGACGACGCATCTGCACTACGAGGATAC
modifications: 5'PO4 on downstream strand; 3'OH at nick
binding result [4]: binds

B5: 47 bp end-joined duplex DNA (dsDNA)
DNA 1: GTATCCTCGTAGTGCAGATGCGTCGTCGGACTGATTCGGTAGATCTG
DNA 2: CAGATCTACCGAATCAGTCCGACGACGCATCTGCACTACGAGGATAC
binding result [5]: binds
